This note sets out measurements from the supplement of paper PMC7877785.

A short description of this series: self-splicing fitness, log relative to wild type (ln ratio); higher = more splicing; Tetrahymena group I intron in knt gene, E. coli kanamycin selection, DiMSum; sequences stand for … in CUCUCU…GGAGGGAAAAGUUAUCAGGCAUGCACCUGGUAGCUAGUCUUUAAACCAAUAGAUUGCAUCGGUUUAAAAGGCAAGACCGUCAAAUUGCGGGAAAGGGGUCAACAGCCGUUCAGUACCAAGUCUCAGGGGAAACUUUGAGAUGGCCUUGCAAAGGGUAUGGUAAUAAGCUGACGGACAUGGUCCUAACCACGCAGCCAAGUCCUAAGUCAACAGAUCUUCUGUUGAUAUGGAUGCAGUUCACAGACUAAAUGUCGGUCGGGGAAGAUGUAUUCUUCUCAUAAGAUAUAGUCGGACCUCUCCUUAAUGGGAGCUAGCGGAUGAAGUGAUGCAACACUGGAGCCGCUGGGAACUAAUUUGUAUGCGAAAGUAUAUUGAUUAGUUUUGGAGUACUCGUGGUCG
A digest of the protocol:
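Six replicate transformations of E. coli BL21(DE3) with a pET-22b(+) library were grown overnight at 37°C or 30°C. The library randomised all eight P1ex-region intron nucleotides, the intron lying in the knt kanamycin-resistance gene, and plates were LB agar with or without 25 μg/mL kanamycin plus 100 μg/mL carbenicillin, 50 μM IPTG and 0.2% rhamnose. Pooled colonies were amplicon-sequenced on an Illumina HiSeq 2500, and fitness is the DiMSum error-weighted combination of wild-type-normalised replicate fold changes, kanamycin versus none.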

± gives the uncertainty stated by the source.

As for UGGGAGCAAUAUUACGUGCA, the “self-splicing fitness (ln)” value reads like this: (30 °C) -1.07 ± 0.093; (37 °C) -0.293 ± 0.11.

Consider CUCCAGCAAUAUUACGGCAG, for which the “self-splicing fitness (ln)” value (30 °C) is -4.58 ± 0.21 and the “self-splicing fitness (ln)” value (37 °C) was -1.75 ± 0.15.

As for AUUGAGCAAUAUUACGGUUU, the “self-splicing fitness (ln)” value is, setting by setting: (30 °C) -3.23 ± 0.21; (37 °C) -2.16 ± 0.22.

For UAUCAGCAAUAUUACGUGGC, the “self-splicing fitness (ln)” value runs as follows: (30 °C) -4.28 ± 0.36; (37 °C) -2.41 ± 0.27.

As for ACAGAGCAAUAUUACGUAGA, the “self-splicing fitness (ln)” value by setting is: (30 °C) -4.17 ± 0.37; (37 °C) -2.19 ± 0.21.

For AGGAAGCAAUAUUACGACUA, the “self-splicing fitness (ln)” value is 0.0184 ± 0.094 (30 °C) and -0.351 ± 0.12 (37 °C).

Regarding UCUCAGCAAUAUUACGACGU, the “self-splicing fitness (ln)” value is -0.386 ± 0.07 (30 °C) and -0.541 ± 0.08 (37 °C).

On to ACAGAGCAAUAUUACGGGCG, for which the “self-splicing fitness (ln)” value is -3.27 ± 0.19 (30 °C) and -1.25 ± 0.2 (37 °C).

As to ACAUAGCAAUAUUACGCUUU, the “self-splicing fitness (ln)” value (30 °C) was -2.82 ± 0.16 and the “self-splicing fitness (ln)” value (37 °C) is -2.53 ± 0.32.

For UACGAGCAAUAUUACGCCCC, the “self-splicing fitness (ln)” value (30 °C) was -2.16 ± 0.44.

In the case of AUGUAGCAAUAUUACGAAAA, the “self-splicing fitness (ln)” value by setting is: (30 °C) -0.961 ± 0.34; (37 °C) -0.547 ± 0.31.

On to GGCAAGCAAUAUUACGUGCG, for which the “self-splicing fitness (ln)” value runs as follows: (30 °C) -1.57 ± 0.1; (37 °C) -0.197 ± 0.099.

For AAGAAGCAAUAUUACGUAAC, the “self-splicing fitness (ln)” value is, setting by setting: (30 °C) -2.35 ± 0.14; (37 °C) -1.2 ± 0.12.

As for GCUCAGCAAUAUUACGGCCU, the “self-splicing fitness (ln)” value by setting is: (30 °C) -1.6 ± 0.14; (37 °C) -0.188 ± 0.16.

As for CCUCAGCAAUAUUACGGAGC, the “self-splicing fitness (ln)” value is -4.55 ± 0.3 (30 °C) and -2.91 ± 0.19 (37 °C).

Turning to UUACAGCAAUAUUACGAUUG, the “self-splicing fitness (ln)” value reads like this: (30 °C) -1.76 ± 0.091; (37 °C) -0.796 ± 0.1.

With UCGCAGCAAUAUUACGUUGC, where the note is “37 °C”, the “self-splicing fitness (ln)” value was -4.15 ± 0.42.

For GAUCAGCAAUAUUACGGCGA, the “self-splicing fitness (ln)” value (30 °C) is -0.479 ± 0.15 and the “self-splicing fitness (ln)” value (37 °C) was -0.214 ± 0.15.

Consider AUACAGCAAUAUUACGACAA, for which the “self-splicing fitness (ln)” value is -1.19 ± 0.093 (30 °C) and -0.929 ± 0.12 (37 °C).

For the sequence CGAAAGCAAUAUUACGCUCA, the “self-splicing fitness (ln)” value reads like this: (30 °C) -0.156 ± 0.094; (37 °C) 0.0149 ± 0.13.

As for CAUCAGCAAUAUUACGUUCU, the “self-splicing fitness (ln)” value is -3.82 ± 0.2 (30 °C) and -3.32 ± 0.23 (37 °C).

UUCCAGCAAUAUUACGAUAU: the “self-splicing fitness (ln)” value is -3.13 ± 0.25 (30 °C) and -0.723 ± 0.16 (37 °C).

As to CCAAAGCAAUAUUACGAAUA, the “self-splicing fitness (ln)” value is -3.55 ± 0.32 (30 °C) and -1.51 ± 0.18 (37 °C).

GUGAAGCAAUAUUACGGGGG: the “self-splicing fitness (ln)” value is, setting by setting: (30 °C) -2.67 ± 0.14; (37 °C) -3.08 ± 0.14.

With GCAAAGCAAUAUUACGACGG, the “self-splicing fitness (ln)” value by setting is: (30 °C) -2.23 ± 0.13; (37 °C) -1.2 ± 0.2.

As for UUUCAGCAAUAUUACGGGUU, the “self-splicing fitness (ln)” value (30 °C) was -3.19 ± 0.24 and the “self-splicing fitness (ln)” value (37 °C) is -2.13 ± 0.18.

As for CCGGAGCAAUAUUACGAGGA, the “self-splicing fitness (ln)” value (37 °C) was -1.96 ± 0.24.

Turning to UCUCAGCAAUAUUACGUGUA, the “self-splicing fitness (ln)” value by setting is: (30 °C) -1.47 ± 0.089; (37 °C) -0.902 ± 0.08.

Consider ACAGAGCAAUAUUACGUGUA, for which the “self-splicing fitness (ln)” value is -3.11 ± 0.15 (30 °C) and -2.62 ± 0.14 (37 °C).

On to UUAUAGCAAUAUUACGGGAC, for which the “self-splicing fitness (ln)” value is, setting by setting: (30 °C) -2.91 ± 0.31; (37 °C) -2.4 ± 0.34.

AGCAAGCAAUAUUACGUUGG: the “self-splicing fitness (ln)” value is -4.16 ± 0.14 (30 °C) and -3.18 ± 0.17 (37 °C).

With UAAGAGCAAUAUUACGGGUG, the “self-splicing fitness (ln)” value is, setting by setting: (30 °C) -3.49 ± 0.18; (37 °C) -1.06 ± 0.13.

For CAGAAGCAAUAUUACGAAUA, the “self-splicing fitness (ln)” value is, setting by setting: (30 °C) -2.43 ± 0.27; (37 °C) -1.84 ± 0.24.

UUAUAGCAAUAUUACGGGUC: the “self-splicing fitness (ln)” value by setting is: (30 °C) -2.3 ± 0.32; (37 °C) -2.47 ± 0.41.

Consider AACCAGCAAUAUUACGGACG, for which the “self-splicing fitness (ln)” value is 0.131 ± 0.059 (30 °C) and -0.143 ± 0.07 (37 °C).

For the sequence GGUCAGCAAUAUUACGUGCC, the “self-splicing fitness (ln)” value is, setting by setting: (30 °C) -2.9 ± 0.23; (37 °C) -0.811 ± 0.26.

As to CAAGAGCAAUAUUACGAACG, the “self-splicing fitness (ln)” value is -0.336 ± 0.063 (30 °C) and 0.335 ± 0.079 (37 °C).

In the case of UUCCAGCAAUAUUACGCCAU, the “self-splicing fitness (ln)” value is -3.3 ± 0.19 (30 °C) and -2.82 ± 0.25 (37 °C).
